± gives the standard deviation of the averaged measurements.
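Also: ATP exposure 15 min at 22 °C before imaging.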

This data set relates to ATP. Description: switch fluorescence ratio, 500 uM ATP over buffer (Cy3 cluster intensity, sum of 5 cycles each) (fold (ratio)); higher = stronger signal-on switching upon ATP binding; sequences stand for … in TCGTCGGCAGCGTCAGATGTGTATAAGAGACAGTTTTTTTTTTTTTTTTTTTTTTTTT…TC. The note with it: aptamer strand: ATP DNA aptamer (quencher-CACCTGGGGGAGTATTGCGGAGGAAGG + anchor), 100 nM annealed; ATP concentration: 500 uM. Put shortly:
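Values give the fluorescence ratio for each switch-domain sequence, averaged from per-cluster ratios of summed target-cycle to summed buffer-cycle Cy3 intensity. The Cy3-labelled switching-strand clusters sat on a modified Illumina MiSeq flow-cell, were annealed to 100 nM quencher-labelled ATP aptamer, and were imaged in selection buffer, then after 15 min with 500 uM ATP at 22 °C. Five cycles ran with NaOH stripping and re-annealing between them, and clusters outside 100-1000 RFU were excluded.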
As for GCAAGGGCTA, the switch fluorescence ratio was determined as 1.04 ± 0.045. In the case of GGTTGTGCTT it was 0.995 ± 0.0039; in that of ATATGGTAGT, 1.03 ± 0.032.

Regarding TTAAAATTCT, the switch fluorescence ratio is 1.04 ± 0.06. The same measure for GAAGTTCGAG: 0.998 ± 0.016.

TTCAAGGTA: the switch fluorescence ratio is 1.01 ± 0.015. The same measure for CCTGAAGTTG: 1.18 ± 0.21; for GTTTTTGCTA: 1.01 ± 0.028. The same measure for CATATTTCCA: 0.99 ± 0.02; for TAATTTGTTA: 1 ± 0.02.

As to GATGTTTCAT, the switch fluorescence ratio came to 0.979 ± 0.018. In the case of CAAGTGTGAG, the switch fluorescence ratio turned out to be 0.985 ± 0.013.

GGATTTGGTG: the switch fluorescence ratio was found to be 1 ± 0.012.

For TCTGGAGGGG, the switch fluorescence ratio is 1.022 ± 0.0073. In the case of TGTGAGCTGT it was 1.0077 ± 0.00016; in that of TAACGTATGG, 1.03 ± 0.021. For the sequence TGAGATAAGG, the switch fluorescence ratio was found to be 0.987 ± 0.03.

Consider AAGTAGAGTG, for which the switch fluorescence ratio worked out at 0.9834 ± 0.0013.

Turning to TTTGGGAGGC, the switch fluorescence ratio was 1.01 ± 0.034. In the case of GGGAAATTCG it was 1.012 ± 0.0039; in that of GGTATGTAAG, 0.995 ± 0.02.

As to CTTTGAAAA, the switch fluorescence ratio was 1.02 ± 0.02.

Regarding CGTAATCATC, the switch fluorescence ratio was 1.13 ± 0.023. For GAAGTTAGGT, the switch fluorescence ratio turned out to be 0.9981 ± 0.0087. In the case of CATATCTGAC it was 1.16 ± 0.056; in that of TTTTCAAAAT, 1.08 ± 0.13.

CCAGGGAGTG: the switch fluorescence ratio is 1.04 ± 0.015. With GAATCATGTT, the switch fluorescence ratio stood at 0.9915 ± 0.0065. With TCTTATGGAA, the switch fluorescence ratio worked out at 1.04 ± 0.047. The same measure for ATTTGCGAAT: 0.966 ± 0.039; for GGTGACAGGC: 1.04 ± 0.08; for TTGGGGCACT: 0.985 ± 0.016. The same measure for GAGGGCACAT: 1.03 ± 0.05; for AGGGTTATTA: 0.9786 ± 0.0025. The same measure for ACGCCATAGT: 1.25 ± 0.059.

ATTCTCTTGT: the switch fluorescence ratio is 0.996 ± 0.014. Consider ATCAATGGCA, for which the switch fluorescence ratio was 0.975 ± 0.035. Regarding GTTTTAGTGT, the switch fluorescence ratio was 0.98716 ± 0.00058. The same measure for ACCAGGTATG: 1.12 ± 0.016; for GGAATTCGGG: 1.01 ± 0.025. In the case of TCGTTGCAGG it was 1.05 ± 0.092; in that of GGATTGTCTT, 1 ± 0.0014. The same measure for GGGGCTGGGT: 1.02 ± 0.031.

Turning to TGGTTAGTTG, the switch fluorescence ratio turned out to be 0.994 ± 0.013. In the case of ATTTGCGGCT it was 0.958 ± 0.062; in that of ATAGTTGGTT, 1.01 ± 0.03. For ATCGAGAACG, the switch fluorescence ratio worked out at 0.993 ± 0.014.

Regarding AGTCACTTAG, the switch fluorescence ratio was 1.05 ± 0.015. The same measure for AAGCGAGGTC: 1.05 ± 0.021; for AGAACTTAAG: 1.01 ± 0.037. In the case of GCTTTTTAGG it was 0.964 ± 0.024; in that of AGTAACGCGG, 0.979 ± 0.014. In the case of CACGGAAGCG it was 1.05 ± 0.032. Regarding TAAGAGACGG, the switch fluorescence ratio turned out to be 0.991 ± 0.056. The same measure for AATTGGAAGG: 0.993 ± 0.012. In the case of TGTTAGTCTA it was 0.9884 ± 0.0052; in that of CGTGAAGATG, 0.9674 ± 0.0068. The same measure for TAGGGGTCCT: 1.01 ± 0.046; for TTAATAAAGG: 1.02 ± 0.018; for AAAAATTTTT: 0.995 ± 0.052.

Consider AGGACTGTGT, for which the switch fluorescence ratio is 1.02 ± 0.04. The same measure for TCGGCCACAG: 1.05 ± 0.02; for CCTTCCTACG: 2.36 ± 0.54; for TTAATAAAC: 1.01 ± 0.017. TTTTTATTAA: the switch fluorescence ratio came to 0.989 ± 0.033. For the sequence GCGGGCGTTG, the switch fluorescence ratio amounted to 0.996 ± 0.053. In the case of TTCCGGGCTT it was 1.41 ± 0.38.

The record behind these values is the supplement of paper PMC10126150.
